Data: US20200283847, “TEST KIT FOR DETECTING CONCENTRATION OF CARDIOVASCULAR DISEASE-RELATED BIOMARKER AND CONCENTRATION DETECTION METHOD FOR DETECTING CONCENTRATION OF CARDIOVASCULAR DISEASE-RELATED BIOMARKER” (National Tsing Hua University, published 2020)

How the values were obtained:
[1] = target: T1, hcTnI (human cardiac troponin I) (Homo sapiens, UniProt P19429 P19429:2-210); experiment: SPR
Method: (§1) Firstly, the binding affinities of the first aptamer, the second aptamer, and the third aptamer contained in the test kit for detecting the concentration of the cardiovascular disease-related biomarker of the present disclosure are tested. The surface plasmon resonance (SPR) method is used in the binding affinity test to measure the signal changes and calculate the dissociation constant (Kd) of the first aptamer, the second aptamer and the third aptamer against their respective target proteins. Alternatively, a primary antibody against the target protein and secondary antibody conjugated with an enzyme is used in test. The binding affinities of the first aptamer, the second aptamer, and the third aptamer against their respective target proteins are measured by detecting the intensities of luminescence.

[2] = target: T2, BSA (bovine serum albumin) (Bos taurus, UniProt P02769 P02769:25-607); experiment: pulldown; protein-coated magnetic beads, qPCR; also no dose-dependent signal in FIG. 7B
Method: (§2) The magnetic beads coated with the target protein or the non-target protein are mixed with the first aptamer, the second aptamer or the third aptamer, and then the magnetic beads are captured by the magnet and the aptamers which are not bound to the magnetic beads are washed away. Then, the magnetic beads are heated to denature the proteins on the magnetic beads for releasing the bound aptamers into the supernatant. Quantitative PCR is performed using the supernatant to analyze the number of residual aptamers, and compared with each other to test the specificity of the first aptamer, the second aptamer, and the third aptamer. In theory, a specific aptamer should only bind to its corresponding target protein, but not to a non-corresponding protein. The aptamers tested in the example are the first aptamer N20a, the second aptamer Tn2, and the third aptamer F03s.
(§3) Please refer to FIGS. 5A, 5B, 5C and 5D, which show specificity analysis results of a test kit for detecting the concentration of the cardiovascular disease-related biomarker according to one embodiment of the present disclosure. […] TT represents the hcTnI with the second aptamer Tn2, NT represents the NT-proBNP protein with the second aptamer Tn2, FT represents the fibrinogen protein with the second aptamer Tn2, and BT represents the BSA protein with the second aptamer Tn2. FF represents the fibrinogen protein with the third aptamer F03s, NF represents the NT-proBNP with the third aptamer F03s, TF represents the hcTnI with the third aptamer F03s, and BF represents the BSA protein with the third aptamer F03s.

fibrinogen [3] = target: T3, fibrinogen (UniProt P02671-2;P02675;P02679 P02671-2:20-644,P02675:31-491,P02679:27-453); experiment: as above; conditions: chain copies: 2
Method: as §2, §3

[4] = target: T4, NT-proBNP (N-terminal pro-brain natriuretic peptide) (UniProt P16860 P16860:27-102); experiment: as above
Method: as §2, §3

[5] = target: T4, NT-proBNP (N-terminal pro-brain …); experiment: SPR
Method: as §1

[6] = target: T1, hcTnI (human cardiac troponin I); experiment: pulldown; protein-coated magnetic beads, qPCR
Text: as §2, with “In the specificity test, the single-stranded DNA of the first aptamer, the second aptamer and the third aptamer are synthesized first. The magnetic” for “The magnetic”
as §3

[7] = target: T2, BSA (bovine serum albumin); experiment: pulldown; protein-coated magnetic beads, qPCR
Text: as §2, with “In the specificity test, the single-stranded DNA of the first aptamer, the second aptamer and the third aptamer are synthesized first. The magnetic” for “The magnetic”
as §3

fibrinogen [8] = target: T3, fibrinogen; experiment: pulldown; protein-coated magnetic beads, qPCR; conditions: chain copies: 2
Text: as §2, with “In the specificity test, the single-stranded DNA of the first aptamer, the second aptamer and the third aptamer are synthesized first. The magnetic” for “The magnetic”
as §3

[9] = target: T1, hcTnI (human cardiac troponin I); experiment: antibody luminescence assay
Method: as §1
The curves of binding affinity curve are plotted with luminescence intensity of the first aptamer, the second aptamer or the third aptamer with its target protein. The first aptamer, the second aptamer or the third aptamer is bound to the target protein. And then the aptamer-protein complex is incubated with antibodies against target proteins and further with secondary antibodies conjugated with the enzyme, which could produce luminescence when providing substrates. The signal of luminescence of the first aptamer, the second aptamer or the third aptamer is detected. […]

fibrinogen [10] = target: T3, fibrinogen; experiment: SPR; conditions: chain copies: 2
Method: as §1

[11] = target: T4, NT-proBNP (N-terminal pro-brain …); experiment: pulldown; protein-coated magnetic beads, qPCR
Text: as §2, with “In the specificity test, the single-stranded DNA of the first aptamer, the second aptamer and the third aptamer are synthesized first. The magnetic” for “The magnetic”
as §3

T4 sequence (P16860 27-102, one chain of several): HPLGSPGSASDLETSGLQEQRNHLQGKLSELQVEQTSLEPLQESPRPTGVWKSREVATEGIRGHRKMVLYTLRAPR
T3 sequence (P02671 other isoform, or with tags, fused parts or gaps, chain 1 of 3): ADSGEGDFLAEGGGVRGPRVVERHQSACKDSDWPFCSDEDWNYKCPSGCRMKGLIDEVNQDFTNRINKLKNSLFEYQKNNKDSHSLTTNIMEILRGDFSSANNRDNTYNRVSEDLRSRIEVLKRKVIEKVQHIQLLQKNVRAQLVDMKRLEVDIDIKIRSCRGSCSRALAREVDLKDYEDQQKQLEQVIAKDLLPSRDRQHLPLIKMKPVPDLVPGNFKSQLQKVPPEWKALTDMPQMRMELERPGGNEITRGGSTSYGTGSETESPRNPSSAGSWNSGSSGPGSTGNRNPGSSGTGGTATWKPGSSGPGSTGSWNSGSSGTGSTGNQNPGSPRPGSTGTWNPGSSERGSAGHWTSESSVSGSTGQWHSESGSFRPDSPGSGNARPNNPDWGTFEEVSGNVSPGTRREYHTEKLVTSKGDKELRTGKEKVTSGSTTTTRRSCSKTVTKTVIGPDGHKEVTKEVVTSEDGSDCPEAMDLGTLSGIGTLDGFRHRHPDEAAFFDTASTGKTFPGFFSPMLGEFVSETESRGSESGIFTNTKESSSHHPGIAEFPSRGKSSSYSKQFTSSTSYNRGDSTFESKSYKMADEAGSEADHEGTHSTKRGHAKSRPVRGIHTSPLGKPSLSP
T3 sequence (P02675 31-491, chain 2 of 3): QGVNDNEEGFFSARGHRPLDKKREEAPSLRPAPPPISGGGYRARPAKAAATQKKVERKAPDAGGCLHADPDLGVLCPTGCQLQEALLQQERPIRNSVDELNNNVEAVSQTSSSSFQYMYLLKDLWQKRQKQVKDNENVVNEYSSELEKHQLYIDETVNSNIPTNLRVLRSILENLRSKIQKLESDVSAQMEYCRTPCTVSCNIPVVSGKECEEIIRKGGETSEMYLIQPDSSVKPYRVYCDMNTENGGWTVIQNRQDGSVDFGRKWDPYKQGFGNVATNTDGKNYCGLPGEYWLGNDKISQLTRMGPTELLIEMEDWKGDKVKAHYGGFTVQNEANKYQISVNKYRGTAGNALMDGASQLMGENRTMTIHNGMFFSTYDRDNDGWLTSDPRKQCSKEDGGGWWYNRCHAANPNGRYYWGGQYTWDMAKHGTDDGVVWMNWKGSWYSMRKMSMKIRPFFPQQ
T3 sequence (P02679 27-453, chain 3 of 3): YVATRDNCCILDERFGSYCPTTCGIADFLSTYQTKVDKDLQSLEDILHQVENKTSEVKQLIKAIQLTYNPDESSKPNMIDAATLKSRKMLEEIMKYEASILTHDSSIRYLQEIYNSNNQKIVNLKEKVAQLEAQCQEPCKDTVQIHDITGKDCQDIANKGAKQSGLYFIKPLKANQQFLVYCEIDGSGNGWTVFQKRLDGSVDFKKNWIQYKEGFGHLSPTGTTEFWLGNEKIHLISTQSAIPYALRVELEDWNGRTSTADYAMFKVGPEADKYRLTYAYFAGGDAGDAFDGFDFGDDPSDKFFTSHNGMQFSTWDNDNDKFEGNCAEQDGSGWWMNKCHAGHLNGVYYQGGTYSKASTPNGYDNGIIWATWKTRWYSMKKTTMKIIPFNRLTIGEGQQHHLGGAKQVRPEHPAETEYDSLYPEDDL
T1 sequence (P19429 2-210, one chain of several): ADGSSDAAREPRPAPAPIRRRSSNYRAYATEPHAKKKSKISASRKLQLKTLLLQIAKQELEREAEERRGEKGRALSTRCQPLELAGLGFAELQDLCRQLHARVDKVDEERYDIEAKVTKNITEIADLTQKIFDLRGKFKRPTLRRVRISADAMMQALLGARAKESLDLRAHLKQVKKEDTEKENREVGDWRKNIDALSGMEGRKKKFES
T2 sequence (P02769 25-607, one chain of several): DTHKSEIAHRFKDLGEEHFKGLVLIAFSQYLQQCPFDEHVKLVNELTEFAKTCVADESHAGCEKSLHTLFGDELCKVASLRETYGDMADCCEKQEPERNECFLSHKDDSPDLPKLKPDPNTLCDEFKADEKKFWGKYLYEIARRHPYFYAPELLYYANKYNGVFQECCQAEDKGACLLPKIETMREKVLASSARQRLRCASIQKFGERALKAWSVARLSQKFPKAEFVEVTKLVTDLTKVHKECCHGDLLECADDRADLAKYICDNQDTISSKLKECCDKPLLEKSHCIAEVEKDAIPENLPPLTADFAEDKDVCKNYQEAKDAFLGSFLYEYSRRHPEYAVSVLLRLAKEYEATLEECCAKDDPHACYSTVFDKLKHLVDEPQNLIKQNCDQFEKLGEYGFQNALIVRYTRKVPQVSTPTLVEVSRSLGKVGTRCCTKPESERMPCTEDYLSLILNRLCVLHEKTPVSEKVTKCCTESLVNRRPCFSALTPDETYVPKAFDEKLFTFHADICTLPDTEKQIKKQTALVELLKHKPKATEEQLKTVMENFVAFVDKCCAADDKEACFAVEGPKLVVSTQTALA

B1: Tn2 (ssDNA)
DNA: GGCAGGAAGACAAACACCCAACCGAGGATGCAACGCTTGTTGTCATACTGTGATGTTGGTCTGTGGTGCTGT
Kd [1]: 19.8 nM
binding result [2]: no binding
binding result (fibrinogen [3]): no binding
binding result [4]: no binding

B2: N20a (ssDNA)
DNA: GGCAGGAAGACAAACAGGTCGTAGTGGAAACTGTCCACCGTAGACCGGTTATCTAGTGGTCTGTGGTGCTGT
Kd [5]: 2.89 nM
binding result [6]: no binding
binding result [7]: no binding
binding result (fibrinogen [8]): no binding

B3: cTni3 (ssDNA)
DNA: GGCAGGAAGACAAACAGGGGTACTTAGCATAGGAGTTTTGTTCTGTCGCACCTCGTTGGTCTGTGGTGCTGT
Kd [9]: 2.3 nM

B4: F03s (ssDNA)
DNA: GGCAGGAAGACAAACAGCACCGGGTCCGAAACAGGCTTAGGTATGATCACAGCTCATGGTCTGTGGTGCTGT
Kd (fibrinogen [10]): 4.4 nM
binding result [6]: no binding
binding result [7]: no binding
binding result [11]: no binding

B5: cTni6 (ssDNA)
DNA: GGCAGGAAGACAAACACGGGGCGGCCGAAACAATGCGTTTCGGACCCAGCAACTCGTGGTCTGTGGTGCTGT
Kd [9]: 49.4 nM
